Assays:
[1] = molecular target: feline FcRn (FCN-F82W3, Acrobiosystems) (feline); assay: SPR Carterra, IgG coupled, pH 6.0
[2] = molecular target: feline FcRn (IgG receptor FcRn large subunit p51 with feline beta-2-microglobulin) (feline); assay: SPR Biacore 8K+, IgG on C1 chip, pH 5.9, 1:1 kinetic fit
[3] = molecular target: feline FcRn (IgG receptor FcRn large subunit p51 with feline beta-2-microglobulin) (feline); assay: SPR Biacore 8K+, IgG on C1 chip, pH 5.9, kinetic fit (printed 1:4)

Binder | Kd [1] | koff [1] | kon [1] | Kd [2] | Kd [3]
anti-NGF feline IgG1a, Fc variant S428Y, Q311V (antibody, part only; not given: Anti-NGF variable domains, not shown: another chain or arm of the molecule; small tags and cut ends) Fc: PPEMLGGPSIFIFPPKPKDTLSISRTPEVTCLVVDLGPDDSDVQITWFVDNTQVYTAKTSPREEQFNSTYRVVSVLPILHVDWLKGKEFKCKVNSKSLPSPIERTISKAKGQPHEPQVYVLPPAQEELSRNKVSVTCLIKSFHPPDIAVEWEITGQPEPENNYRTTPPQLDSDGTYFVYSKLSVDRSHWQRGNTYTCSVYHEALHSHHTQKSLTQSPGK | 10.9 nM | 0.00977 s⁻¹ | 893000 M⁻¹ s⁻¹ | 32.2 nM | 
anti-NGF feline IgG1a, Fc variant S428Y, L309V (antibody, part only; not given: Anti-NGF variable domains, not shown: another chain or arm of the molecule; small tags and cut ends) Fc: PPEMLGGPSIFIFPPKPKDTLSISRTPEVTCLVVDLGPDDSDVQITWFVDNTQVYTAKTSPREEQFNSTYRVVSVLPIVHQDWLKGKEFKCKVNSKSLPSPIERTISKAKGQPHEPQVYVLPPAQEELSRNKVSVTCLIKSFHPPDIAVEWEITGQPEPENNYRTTPPQLDSDGTYFVYSKLSVDRSHWQRGNTYTCSVYHEALHSHHTQKSLTQSPGK | 13.2 nM | 0.0112 s⁻¹ | 847000 M⁻¹ s⁻¹ | 35.3 nM | 
anti-NGF feline IgG1a, Fc variant S428Y, L309V, T286E (antibody, part only; not given: anti-NGF variable domains, not shown: another chain or arm of the molecule; small tags and cut ends) Fc: PPEMLGGPSIFIFPPKPKDTLSISRTPEVTCLVVDLGPDDSDVQITWFVDNTQVYEAKTSPREEQFNSTYRVVSVLPIVHQDWLKGKEFKCKVNSKSLPSPIERTISKAKGQPHEPQVYVLPPAQEELSRNKVSVTCLIKSFHPPDIAVEWEITGQPEPENNYRTTPPQLDSDGTYFVYSKLSVDRSHWQRGNTYTCSVYHEALHSHHTQKSLTQSPGK |  |  |  |  | 5.26 nM

Now from value to binder:

Kd [1] | koff [1] | kon [1] | Kd [2] | Kd [3] | Binder
25.6 nM | 0.0184 s⁻¹ | 718000 M⁻¹ s⁻¹ | 71.8 nM |  | anti-NGF feline IgG1a, Fc variant S428Y (antibody, part only; not given: anti-NGF variable domains, not shown: another chain or arm of the molecule; small tags and cut ends) Fc: PPEMLGGPSIFIFPPKPKDTLSISRTPEVTCLVVDLGPDDSDVQITWFVDNTQVYTAKTSPREEQFNSTYRVVSVLPILHQDWLKGKEFKCKVNSKSLPSPIERTISKAKGQPHEPQVYVLPPAQEELSRNKVSVTCLIKSFHPPDIAVEWEITGQPEPENNYRTTPPQLDSDGTYFVYSKLSVDRSHWQRGNTYTCSVYHEALHSHHTQKSLTQSPGK
 |  |  | 20.1 nM |  | anti-NGF feline IgG1a, Fc variant S428Y, Q311V, E380T (antibody, part only; not given: anti-NGF variable domains, not shown: another chain or arm of the molecule; small tags and cut ends) Fc: PPEMLGGPSIFIFPPKPKDTLSISRTPEVTCLVVDLGPDDSDVQITWFVDNTQVYTAKTSPREEQFNSTYRVVSVLPILHVDWLKGKEFKCKVNSKSLPSPIERTISKAKGQPHEPQVYVLPPAQEELSRNKVSVTCLIKSFHPPDIAVTWEITGQPEPENNYRTTPPQLDSDGTYFVYSKLSVDRSHWQRGNTYTCSVYHEALHSHHTQKSLTQSPGK
 |  |  | 20.6 nM |  | anti-NGF feline IgG1a, Fc variant S428Y, L309V, E380T (antibody, part only; not given: anti-NGF variable domains, light chain, not shown: another chain or arm of the molecule; small tags and cut ends) Fc: PPEMLGGPSIFIFPPKPKDTLSISRTPEVTCLVVDLGPDDSDVQITWFVDNTQVYTAKTSPREEQFNSTYRVVSVLPIVHQDWLKGKEFKCKVNSKSLPSPIERTISKAKGQPHEPQVYVLPPAQEELSRNKVSVTCLIKSFHPPDIAVTWEITGQPEPENNYRTTPPQLDSDGTYFVYSKLSVDRSHWQRGNTYTCSVYHEALHSHHTQKSLTQSPGK
 |  |  | 6.11 nM |  | anti-NGF feline IgG1a, Fc variant S428Y, Q311V, T286E (antibody, part only; not given: anti-NGF variable domains, light chain, not shown: another chain or arm of the molecule; small tags and cut ends) Fc: PPEMLGGPSIFIFPPKPKDTLSISRTPEVTCLVVDLGPDDSDVQITWFVDNTQVYEAKTSPREEQFNSTYRVVSVLPILHVDWLKGKEFKCKVNSKSLPSPIERTISKAKGQPHEPQVYVLPPAQEELSRNKVSVTCLIKSFHPPDIAVEWEITGQPEPENNYRTTPPQLDSDGTYFVYSKLSVDRSHWQRGNTYTCSVYHEALHSHHTQKSLTQSPGK

Source: US20250304650A1
